Results on 10 molecules are retold here after patent US20170072062A1 (published 2017).

Ends that are not written are not given here. * marks the point of attachment. Methacryloyl = C=C(C)C(=O)*

Test [1] concerns the target T1, TRAP deposited by previous osteoclast activity on human cortical bone wafers (human, UniProt P13686 22-325, limits assumed).
T1 construct: The target is TRAP on a bone surface, not purified protein; The species follows from the human donor bone; also called bone resorption pits
T1 sequence (looked up): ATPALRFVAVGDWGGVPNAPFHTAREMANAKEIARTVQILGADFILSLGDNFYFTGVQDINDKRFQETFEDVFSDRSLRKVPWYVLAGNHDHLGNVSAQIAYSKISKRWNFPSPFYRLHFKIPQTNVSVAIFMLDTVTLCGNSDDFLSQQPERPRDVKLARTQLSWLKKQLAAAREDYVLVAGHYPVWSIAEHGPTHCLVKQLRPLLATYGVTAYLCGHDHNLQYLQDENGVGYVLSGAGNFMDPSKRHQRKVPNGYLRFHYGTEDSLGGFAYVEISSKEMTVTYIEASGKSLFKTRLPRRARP
Briefly: confocal imaging of fluorescent peptide on human cortical bone wafers decorated with TRAP. As for the experimental part: Equal concentrations of fluorescently labeled TBP and SCP are prepared in 1× phosphate-buffered saline (PBS). Bone wafers are cut from cortical bone obtained from the femur of a human donor cadaver and incubated in peptide solutions overnight, washed twice with 1×PBS, and then visualized via confocal imaging. Stacked sections are compressed into 2D images to allow for qualitative analysis as in FIG. 3A through FIG. 3D.

The target of test [2] is type V tartrate-resistant acid phosphatase (TRAP) protein, immobilised on CM5 sensor chip. Nature of the test: SPR, TRAP on CM5 chip, binding curve fit. (In SPR one partner is held on a chip, and binding of the other changes the refractive index at the surface.)
For test [3] the target is unchanged. Briefly: SPR, TRAP on CM5 chip, binding curve fit (n = 2, Ave. ± StDev).
Test [4] has the same target. Briefly: SPR, TRAP on CM5 chip, steady-state response vs concentration fit.
The target is the same in test [5]. Briefly: SPR, TRAP on CM5 chip, initial rate analysis of sensorgrams.
The target is the same in test [6]. Nature of the test: SPR, TRAP on CM5 chip; lower end of a range told of the peptide-functionalized polymers.
For test [7] the target is unchanged. Briefly: SPR, TRAP on CM5 chip; upper end of a range told of the peptide-functionalized polymers.

B1: fluorescently labeled scrambled control peptide (SCP) (peptide)
peptide: VPVGTLSYLKLTG
modifications: also: fluorescent cadaverine coupled, site not given here
notes: also called fluorescently labeled SCP; Control (SCP)
Take B1: the binding result in test [1] was “no binding”. Usually Kd stands for the free concentration of one partner at which half of the binding sites on the other are occupied at equilibrium, for simple one-to-one binding. Low readings indicate tighter binding, high ones weaker binding. Regarding TPLSYLKGLVTVG [TRAP-binding peptide (TBP)], the dissociation constant (Kd) came out at 700 µM in test [2], 795 µM in test [3] and 200 µM in test [4].

B2: 5% TBP-functionalized PEG polymer, M:CTA:I 125:1:0.1, Mn 17.1 kDa (Table 4) (peptide)
peptide: Methacryloyl-TPLSYLKGLVTVG
modifications: not fully specified; also: RAFT copolymer with PEG methyl ether methacrylate, about 3 peptides per chain
In turn, B2 had a Kd in test [5] of 70 µM. Methacryloyl-TPLSYLKGLVTVG (also: RAFT copolymer with PEG monomethyl ether methacrylate, multivalent) [20% peptide monomer TBP-functionalized PEG polymer (Table 1, Mn 26700 Da)]: the dissociation constant Kd was 7.5 µM in test [3] and 7.1 to 21 µM in test [6].

B3: 5% TBP-functionalized PEG polymer, M:CTA:I 600:1:0.1, Mn 98.2 kDa (Table 4) (peptide)
peptide: Methacryloyl-TPLSYLKGLVTVG
modifications: not fully specified; also: RAFT copolymer with PEG methyl ether methacrylate, about 11 peptides per chain
Consider B3, for which the equilibrium dissociation constant (Kd) in test [5] came to 140 µM.

Turning to Methacryloyl-TPLSYLKGLVTVG (also: RAFT copolymer with PEG monomethyl ether methacrylate, multivalent) [10% peptide monomer TBP-functionalized PEG polymer (Table 1, Mn 69000 Da)], the Kd in test [3] worked out at 12.7 µM.

B4: 10% TBP-functionalized polymer (pTBP), M:CTA:I 300:1:0.1, Mn 40.1 kDa (Table 4) (peptide)
peptide: Methacryloyl-TPLSYLKGLVTVG
modifications: not fully specified; also: RAFT copolymer with PEG methyl ether methacrylate, about 9 peptides per chain
B4 came in with a Kd in test [5] of 60 µM.

B5: 5% TBP-functionalized PEG polymer, M:CTA:I 250:1:0.1, Mn 42.3 kDa (Table 4) (peptide)
peptide: Methacryloyl-TPLSYLKGLVTVG
modifications: not fully specified; also: RAFT copolymer with PEG methyl ether methacrylate, about 5 peptides per chain
Consider B5, for which, in test [5], the Kd stood at 80 µM.

B6: 20% TBP-functionalized PEG polymer, M:CTA:I 500:1:0.1, Mn 32.7 kDa (Table 4) (peptide)
peptide: Methacryloyl-TPLSYLKGLVTVG
modifications: not fully specified; also: RAFT copolymer with PEG methyl ether methacrylate, about 12 peptides per chain
B6 came in with a Kd in test [5] of 70 µM. For Methacryloyl-TPLSYLKGLVTVG (also: RAFT copolymer with PEG monomethyl ether methacrylate, multivalent) [5% peptide monomer TBP-functionalized PEG polymer (Table 1, Mn 103900 Da)], the Kd in test [3] is 21.7 µM; in test [7] it was 7.1 to 21 µM.
